This data set in a line: soluble on expression in E. coli; label from the status in PepcDB or PDB records.
Turning to “MGSDKIHHHHHHMKKRNITEFQVLSEIIRKQPHIKQKEIAENLGITVQAVSEHIRNLVKEGYVKSRGRGEYVVTEKGLRKLKNWISEFKDYLDEINTAVYRYKDIWPAIADEDVKDGETVYLFMKNGLLYASKQPKGEAKAKALYGGKKGEDIAICEIKGIIDVPKGKVIVFRIPPEVVGGSRAVDFNLIKENIDNLDDYVIATMGTVAYVVACKLGLKPDIRFAVPEAIVNACNRGCNVIALITGKMAEKVIKKLDNAKISYTVLDATKENK”, the “soluble on expression in E. coli” value is listed as “not soluble”. Under “MLTACNGSRKGDANLSDNPLLQSSALFMEAPEFDKIKTEHFLPAFEAGMEQQLAEIDSIVNNSEAPTFENTLVAMERSGQTLKRVSNVFFGLTGANTNDELQKIEEKVSPLLAAHSDAIYLNDKLFQRVKAVYESDQSAIEPEGQKLIQEYYDAFVRAGANLSAEDKAKLMELNKEEASLTTEFGNKLIAATNAAAVIVGSKDSLDGLSETEIAKAASDAKAAGHEGKYLLNITNTTQQDYLSVLNDRTIRQRVLEASIHRTDKGDANDTQSIVLRLARLRAQKARLLGFPNYAAWKLQNQMANNPETVLAFVKSIATPYAPQAQKDAAELQAYARSKGFEGDLTAADWNYYADKLRKEKFGLDENEVKQYFVTDSVLKNGVFYAANKLYGLTFKERTDLPVYAEDVRVFDVIDQDGKQLALFYTDLYRRPTKSGGAWMSNWVDQSYLLNQKPVIYNVCNYAKGVDGQPSLINYDEVTTLFHEFGHALHGMFAAQQYPLLSGTNVARDFVEMPSQLNEHWAMDPEVFANYAKHWKTQEPMPAELVKKIQDASDFNQAYSMGENLAAVSLDQAWHTLTVEEAEAITDVAKFEEEALRKVGLYNPQIPPRYRSSYFRHIWSNGYASGYYAYLWTEVLDHNVYQWMVQNGGMTPQNGQRLRDMILSRGNTQDFNVIFTAFTGLQKPDIRDLLRARGLM” stands “soluble”; under “MDWIESVKSYIKVVEEGSFNAAAYQLNTSGSAISKRINWLEERVGVQLLTRTTRSVHQTEAGLLFYQRARLQLDQWQHLVDETRAINQTPAGLLKIGATLAVGSKFIIKYLDEFLATYPKIKVQLITTLPGQVPEHNVDVFISRELEQLNTFSYKATHLFEHHSGFFASKDYLDKYGTPNNINELKAHNMLIWGERPIKEIKLTNNKRVTLRGNFATTNPEALFHAAKRGMGILLTSQQMVIDDLQSGALVPILPEITTDHTRVNAYYPTLDYEHTRTQLFIKYLKTKLS”, “not soluble”. Under “QPSPPQRPNRCTVCRKRVGLTGFMCRCGTTFCGSHRYPEVHGCTFDFKSAG” stands “soluble”; under “MNLLFQSYLDNVGVQIVRQMRSGERFLKIWSQTVEEIVSYVTVNF”, “soluble”. Turning to “MGSDKIHHHHHHMIENVNYARTLLTEEEVGHIVQSGTIVRYKKGQIIFSESDAADRVYFVKEGYVRIFRITQYGRRVTVGCIRSPGQLMGLAETLYGGDRTCFASAIDDVTIVVIRHQQFLDLLEKHPAIAIKVTITLAIRMREAEGIIEEMVCFQVPGRLAQLLIKMAKRAGMETPRGTKISFRLTHEDIAYMIGTSRQNVTSLLNTFKYENSIAIEDKELYILDIEKLNSWVV”, the “soluble on expression in E. coli” value is reported as “not soluble”.

For the sequence “MSLSLGISCFLVKKKSILNKDFESKEKLSSQTFEPEKVEKFLWDIYDKYGFDFTEYRKDSIIRRIKISMLRYCMTNFDEFSHLALTDQDVFEQLFLDFSINTTNFFRDPEVFMFLREKVLLFLDSYSHIRIWCVGCSNGKEPYSLAIILKELGMLHKVQIYATDINPYVIEEAKNGLYSVSTINTDIANYKKSGGSKNFTDYFEVNGNYMKVKDDFKDNILFFQHSVIEKGILNEFQMILCRNVMIYFDIPLQKKVLRHFYNSLDSGGFLVMGKSEGMLLNNGYEYFADYNEKYSVYRRKEGHHHHHH”, the “soluble on expression in E. coli” value is given as “not soluble”.

In the case of “AKDDKVTVLSIERGNKLVYLEKLGLRGDQFYYKIERIRESNGVVYIYHTSYIPEQYINANYPNLEYYSSIYNRFKLDYHIHMNDEHFEEINEIVFPTPEHAASVLGVDEQFPTVLQTKITKLESTGQVLEYSETYKRSDYYKIKFISCDRDH”, the “soluble on expression in E. coli” value was “not soluble”. For “MKNVGFIGWRGMVGSVLMDRMSQENDFENLNPVFFTTSQAGQKAPVFGGKDAGDLKSAFDIEELKKLDIIVTCQGGDYTNEVYPKLKATGWDGYWVDAASALRMKDDAIIVLDPVNQHVISEGLKKGIKTFVGGNCTVSLMLMAIGGLFEKDLVEWISVATYQAASGAGAKNMRELLSQMGLLEQAVSSELKDPASSILDIERKVTAKMRADNFPTDNFGAALGGSLIPWIDKLLPETGQTKEEWKGYAETNKILGLSDNPIPVDGLCVRIGALRCHSQAFTIKLKKDLPLEEIEQIIASHNEWVKVIPNDKEITLRELTPAKVTGTLSVPVGRLRKLAMGPEYLAAFTVGDQLLWGAAEPVRRILKQLVA”, the “soluble on expression in E. coli” value is “soluble”.

Regarding “MGSDKIHHHHHHMKHESTKIPLVIFMHIPKTGGITLRNILDQQYRSEHILRLPQKNKLDNLLQKKGANIKKLQCVYGHHRFGVHEYFQQPFTYITMLRHPVERIISTYYFILQNERNRMHQKVKPLTFEQFVQSTDPDLQVPLTNHQTRYLSGERKPNLNKALQHMDTHFSVVGITELYNESLFIMKKKLGWDHISYQKKNVTYYRYRQTDIGLDTIEIIKRKNPLDLHLYETAKEKLQEHIKRLDSGARKELQQFLQDQNGFGPHG”, the “soluble on expression in E. coli” value is recorded as “not soluble”. Turning to “MKLEASLKHFSPQGMHISDSVKETSPDRLTGTDIMVAIGTTSSRARFGLAAFFGKAGISKTDEQLAVQALVRHAMDTAPKNVRKAAGGEFGWCMLVLAQFAFAEYSRSAATSVTCHTCKGSGRITRTQTTRKVSYPWGKAPYWASKSRAVRPSDWEKWTEVTEIVPAVCEACDGKGTISARCRCGGKGEVLDRIATKERGVPVFKTCERCSGEGYSRVSSATVHRAILKRLPDLHQSSWSRNWKPFYEMLVDVLYKGERQAASEFEKATAY”, the “soluble on expression in E. coli” value is on record as “not soluble”.

In the case of “MSLRGMRIDAYIAEHARKNPDQLALEDGKKSISYSCLDEDINKVASSLDGFEHCKFAILAESGIQYVKILMAVYRSGNIAIPLPIEMQGRSLERILDTACINNIIATKKQYSRFGDGFFERFGTVIVVSDDTSVETLSRRMILERNDPRLRLVLYTSGTTGTPKGVMLSDKNLVSNARSITGILSIGSKDKAALVISPHHAFGNSIINSHLMAGSSIQIGTMNFIDPVFSLIESGVSIFYGVPSTYRILLKYPERFRKAFQNVRTAASAGGAMDRTVVRSIRELSPDTQILPMYGQTEATARLSYLPAEDVDEFIDTIGKAIPGVTLEVFDTENRPVEPGVTGELVARGDNILLGYLNDEAATEKKIIDGWLHTGDLAQKLRCGYIKLLGRKDDLIKIGDHRVNPREIEKEIEMNNEVSSVFVVPVSHELMGNAISLMVIPNERTEIDTIFSFCRKNLPGYLYPREILFIDHLPLSENGKISNRSIIEEYQHVKASEGHHHHHH”, the “soluble on expression in E. coli” value is given as “soluble”. Regarding “MLERTQVFVDTSYLLASFYNSWETGARAQLEIDLPEVVGVLGRMIEQQLKQPVQRQMWYDGIPDSGPHRYQRALRTCDGVQLRAGQLIEWGERRTQKAVDTRLVADLVLAGVRGQCSDIVLVSGDADMIPGVQEAANAGLRVHLYGFGWDSMSSQLRHCCDTTTILDPREDFAECMQLQVLEGPLPPVVRVKPINDAEPIEDLDFTPVPGVASPFEEVSAKDEKFSPRPSEPAEALSEQVCEAQYEISKHEGQTADSGEITESFEAAEIKVTEFFGEPAAPVAESGVEAPTPEAPTVPEAAKPTPAKPKTPKAEPQKQESPKPGTPKPKAPSPADIPPKAPADTEEHSEVEAEIEDSRPKIPSPSMMAPRRKLRSRYVPLPNEVWATAGFQTPYDVGQQYASWWFENAATSTQRDQAHLLSGGGLPPEIDRPLLQFACETLHEYTLTEAQRVALRDGFHSGIRGVLLNQRDS”, the “soluble on expression in E. coli” value is on record as “soluble”. On to “MSLTLSIPPSIQCQTEAACRLITRVTGDTLRAIHLYGSAVAGDLKPNSDIDLLVTICQPLTETQRATLMQELLALSSPPGASAEKRALEVTVVLYSQLVPWCFPPSREMQFGEWLREDIYQGIYEPAQQDWDMVLLITQILETSIPLKGERAERLFTPAPAAQLLKALRYPLDLWQSTADVQGDEYHIVLTLARIWYTLSTGRFTSKDAAADWLLPQLPEEYAATLRAAQREYLGLEQQDWHILLPAVVRFVDFAKAYIPTQFTEGHHHHHH”, for which the “soluble on expression in E. coli” value is “soluble”. On to “MSLHLARVDRQWPRPLQPLGNTCSMMLIKQFPDISLNDTLFVFALEAEAGDVFTEVNTVFTGIGKVNAAIALTKAIATRRPKLIVNLGSAGSQRHGKGEIVCCNRFVQRDMDVTALGFARYETPLSDTPVVLEHGAAIPGLAVETCGSGDSFEINHGDAPYDVVDMEAYVLALIARGEGIPFVCLKYISDDAGSEAAGDWAVQVHLAAEAFKRVLFSQAEGHHHHHH”, for which the “soluble on expression in E. coli” value was “soluble”. With “AHHHHHHGSKILYPTDFSEVSQKALTECVPSIILGIGEGSELILLHVVDITASEIGALELAEVDKEELNNLASQLREKGIKVKPIVRIGIPSLEISEVAKEENVDLIIIPSKGENILRQMLLGSTASNLARITHKPVLLLRYEVENGEIKSLQDCSRIFEKPLVALDLSKCSEKIIETIKDLPGVREAVLFHVVDYGKVEELENNIKNAKEKLSKYGKLLPWKTKIEVQAGIASKGIIGAAIDNNVTLVVIGKKGRSVLKDLLLGSTAERVIRDCKLPTLLIPCE”, the “soluble on expression in E. coli” value is “not soluble”. Turning to “HSEEAAYYAVEIGRMFDLGDEKLEKLYWAGLLHDIGKIYVPQVVLNKTSKLDEREFELIKIHPVRGYELVKEIEGFEDVAIWIRHHHERWDGKGYPDGLKGEEIPFEARVLCVADSYQAM”, the “soluble on expression in E. coli” value was “soluble”. Under “MSSQISEIEQEQLIEKLEIFKIHGRDKRGRKILRIIGKFFPARFLSLDVLKKYLEEKIFPRLGRKPFAVLYVHTGVQRSENFPGISALRAIYDAIPVNVRDNLQEVYFLHPGLQSRLFLATCGRFLFSGGLYGKLRYISRVDYLWEHVRRNEIEMPEFVYDHDDDLEYRPMMDYGQESDHARVFAGAAVDSSVSSFSMRCIS” stands “soluble”; under “MAIIRQRYQEQLDDLIKELRRLGANVYVSIENGIKSLSIDDRGFARQTVKNDKHINQLNYDINERVIMLITKQQPIASDLRMMISSLKIASDLERIGDNASSIANIRLRTKITDDYVLTRLKTMGKLAMLMLKDLDQAFKKKDTVLIREIIERDEDIDDLYSHIINATYLIDNDPFVAAQAHLAARHLERIGDHIINIAESVYFYLTGTHYEQ”, “not soluble”.

For “MPDIVNRKVEHVEIAAFENVDGLSSSTFLNDVILVHQGFPGISFSEINTKTKFFRKEISVPVMVTGMTGGRNELGRINKIIAEVAEKFGIPMGVGSQRVAIEKAEARESFAIVRKVAPTIPIIANLGMPQLVKGYGLKEFQDAIQMIEADAIAVHLNPAQEVFQPEGEPEYQIYALEKLRDISKELSVPIIVKESGNGISMETAKLLYSYGIKNFDTSGQGGTNWIAIEMIRDIRRGNWKAESAKNFLDWGVPTAASIMEVRYSVPDSFLVGSGGIRSGLDAAKAIALGADIAGMALPVLKSAIEGKESLEQFFRKIIFELKAAMMLTGSKDVDALKKTSIVILGKLKEWAEYRGINLSIYEKVRKRE”, the “soluble on expression in E. coli” value is “soluble”. For “MGSDKIHHHHHHMADTTPDVETDKCDDLLESLRRGRPAAGQDPVKRSQIIDGARRVFIEKGFEAASMNDITREAGVSKGTIYVYFANKEELFEALIEEERGTIFKNMYDMLDRADDLRQTLVKFGKVLSMKITSARVIQAQRTVIGASDRIPDMGARFYERGPKRGHDKVVKFLNAAIERGLLKIDDVDLAAYQFTELCLAGLFRQCIFAYRTKAPSQEEIDHIVRSGVDMFLKNYGTEQLAEEESHQMIALEAKA”, the “soluble on expression in E. coli” value is recorded as “not soluble”.
